B1: Bovine Fetuin 56-72 (peptide)
peptide: YKHTLNQIDSVKVWPRR
B2: Ii 97-111 (peptide)
peptide: LPKPPKPVSKMRMAT
B3: Pseudo HLA-A2 103-117 (peptide)
peptide: VGSDWRFLRGYHQYA
B4: Na+/K+ ATPase 199-216 (peptide)
peptide: IPADLRIISANGCKVDNS
B5: Transferrin Recpt. 680-696 (peptide)
peptide: RVEYHFLSPYVSPKESP
B6: β2m 52-64 (peptide)
peptide: SDLSFSKDWSFYL
B7: Invariant Chain (Ii) 107-121 (peptide)
peptide: KMRMATPLLMQALPM

Target: 'Empty' HLA-DR1 purified from insect cells expressing recombinant DR1 cDNA (human)

Row | Binder | Ki
1 | B1 | 66 nM
2 | B2 | > 10000 nM
3 | B3 | 49 nM
4 | B4 | 68 nM
5 | B5 | < 10 nM
6 | B6 | > 10000 nM
7 | B7 | < 10 nM
